{
  "source": "the RNAGym collection of RNA variant scans (doi:10.1073/pnas.2313332121)",
  "parents": {"B1": {"name": "TPR t1 (parent)", "chain": "GACCAAUCUGCCCUCAGAGCUCGAGAACAUCUUCGGAUGCAGAGGAGGCAGGCUUCGGUGGCGCGAUAGCGCCAACGUCCUCAACCUCCAAUGCAUCCCACCACAUGAUGAUGCCUGAAGAGCCUUGGUUUUUUG"}},
  "data": [
    {"variants_of": "B1", "assay": "polymerase ribozyme fitness, log enrichment relative to wild type (log ratio); higher = more active; in vitro selection for triplet polymerase activity", "method_in_brief": "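Mutant libraries of each subunit of a heterodimeric triplet polymerase ribozyme were built by PCR and transcribed. Each library went through one round of in vitro selection in triplicate: annealing with biotinylated primer, partner subunit and triplets, frozen incubation at −7 °C, gel excision of extended constructs, streptavidin-bead capture and RT-PCR. Input and output libraries were Illumina-sequenced; only genotypes with ≥10 input reads and ≥1 read per output were kept. Fitness is log2(genotype enrichment/wild-type enrichment), using inverse-variance-weighted replicate averages.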", "values": [
      {"variant": "GACCAAUCUGCCCUCAGAGCUCGAGAACAUCUUCGGAUGCAGAUGAGGCAGGCUUCGGUGGCGCGAUAGCGCCAACGUCCUCAACCUCCAAUGCAUACCACCACAUGAUGAUGCCUGAAGAGCCUUGGUUUUUUG", "note": "[G44U C97A]", "polymerase ribozyme fitness (log ratio)": -6.15},
      {"variant": "GACCAAUCUGCCCUCAGAGCUCGAGAACAUCUUCGGAUGCAGACGAGGCAGGCUUCGGUGGCGCGAUAGCGCCAACUUCCUCAACAUCCAAUGCAUCCCACCACAUGAUGAUGCCUGAAGAGCCUUGGUUUUUUG", "note": "[G44C G77U C86A]", "polymerase ribozyme fitness (log ratio)": -4.13},
      {"variant": "GACCAAUCUGCCCUCAGAGCUCGAGAACAUCUUCGGAUGCAGAUGAGGCAGGCUUCGGUGGCGCGAUAGCGCCAACGUCCUCAACCUCCAAUGCAUCCCACCACAUGAUGAUGGCUGAAGAGCCUUGGUUUUUUG", "note": "[G44U C114G]", "polymerase ribozyme fitness (log ratio)": -3.66},
      {"variant": "GACCAAUCUGCCCUCAGAGCUCGAGAACAUCUUCGGAUGCAGACGAGGCAGGCUUCGGUGGCGCGAUAGCCCCAACGUCCUCACCCUCCAAUGCAUCCCACCACAUGAUGAUGCCUGAAGAGCCUUGGUUUUUUG", "note": "[G44C G71C A84C]", "polymerase ribozyme fitness (log ratio)": -2.61},
      {"variant": "GACCAAUCUGCCCUCAGAGCUCGAGAACAUCUUCGGAUGCAGAUGUGGCAGGCUUCGGUGGCGCGAUAGCGCCAACGUCCUCAACCUCCAAUGCAUCCCACCACAUGAUGAUGCCUUAAGAGCCUUGGUUUUUUG", "note": "[G44U A46U G117U]", "polymerase ribozyme fitness (log ratio)": -4.65},
      {"variant": "GACCAAUCUGCCCUCAGAGCUCGAGAACAUCUUCGGAUGCAGAUGAGGCAGGCUUCGGUGGCGCGAUAGUGUCAACGUUCUCAACCUCCAAUGCAUCCCACCACAUGAUGAUGCCUGAAGAACCUUGGUUUUUUG", "note": "[G44U C70U C72U C79U G122A]", "polymerase ribozyme fitness (log ratio)": -2.61},
      {"variant": "GACCAAUCUGCCCUCAGAGCUCGAGAACAUCUUCGGAUGCAGAUGUGGCAGGCUUCGGUGGCGCGAUAGCGCCAACGUCCUCAACCUCCAAUGCAUCCCACCACAUGAUGCUGCCUGAAGAGCCUUGGUUUUUUG", "note": "[G44U A46U A111C]", "polymerase ribozyme fitness (log ratio)": -3.04},
      {"variant": "GACCAAUCUGCCCUCAGAGCUCGAGAACAUCUUCGGAUGCAGAUGAGGCAGGCUUCGGUGGCGCGAUAGCGCCAACGUCCUCAACCUCCAAUGCAUCCCACCACAUGAUGAUGCCUGUAGAGCCUUGGUUUUUUG", "note": "[G44U A118U]", "polymerase ribozyme fitness (log ratio)": -0.733},
      {"variant": "GACCAAUCUGCCCUCAGAGCUCGAGAACAUCUUCGGAUGCAGAUAAGGCAGGCAUCGGUGGCGCGAUAGCGGCAACGUCCUCAACCUCCAAUGCAUCCCACCACAUGAUGAUGCCUGAAGAGCCUUGGUUUUUUG", "note": "[G44U G45A U54A C72G]", "polymerase ribozyme fitness (log ratio)": -3.66},
      {"variant": "GACCAAUCUGCCCUCAGAGCUCGAGAACAUCUUCGGAUGCAGAUGAGGCAGGCUUCGGUGGCGCGAUAGCGCCAACGUCUUCAACCUCCAAUGCAUCCCACCACAUGAUGAUGCCUGAAGAGCCUUGGUUUUUUG", "note": "[G44U C80U]", "polymerase ribozyme fitness (log ratio)": -1.59},
      {"variant": "GACCAAUCUGCCCUCAGAGCUCGAGAACAUCUUCGGAUGCAGACGAGGCAGGCUACGGUGGCGCGAUAGGGCCAACGUCCUCAACCUCCAAUGCAUCCCACCACAUGAUGAUGCCUGAAGAGCCUGGGUUUUUUG", "note": "[G44C U55A C70G U126G]", "polymerase ribozyme fitness (log ratio)": -5.73},
      {"variant": "GACCAAUCUGCCCUCAGAGCUCGAGAACAUCUUCGGAUGCAGAUGAGGCAGGCUUCGGUGGCGCGAUAGCGUCAACGUCCUCAACCUCCAAUGCAUCCCACCACAUGAUGAUGCCUGAAGAGCCUUGGUUUUUUG", "note": "[G44U C72U]", "polymerase ribozyme fitness (log ratio)": -1.36},
      {"variant": "GACCAAUCUGCCCUCAGAGCUCGAGAACAUCUUCGGAUGCAGAUGAGGCCGGCUUCGGUGGCGCGAUAGCGCUAACGUCCUCAACCUCCAACGCAUCCCACCACAUGAUGAUGCCUGAAGAGCCUUGGUUUUUUG", "note": "[G44U A50C C73U U92C]", "polymerase ribozyme fitness (log ratio)": -2.12},
      {"variant": "GACCAAUCUGCCCUCAGAGCUCGAGAACAUCUUCGGAUGCAGAUGAGGACGGCUUCGGUGGCGCGAUAGCGACAACGUCCUCAACCUCCAAUGCAUCCCACCACAUGAUGAUGCCUGAAGAGCCUUGGUUUUUUG", "note": "[G44U C49A A50C C72A]", "polymerase ribozyme fitness (log ratio)": -1.95},
      {"variant": "GACCAAUCUGCCCUCAGAGCUCGAGAACAUCUUCGGAUGCAGACGAGGCAGGCUUCGGGGGCGCGAUAGCGCCAACGUCAUCAACCUCCAAUGCAUCCCACCACAUGAUGAUGCCUGAAGAGCCUUGGUUUUUUG", "note": "[G44C U59G C80A]", "polymerase ribozyme fitness (log ratio)": -4.66},
      {"variant": "GACCAAUCUGCCCUCAGAGCUCGAGAACAUCUUCGGAUGCAGAUGAGGCAGGCUUCGGUGGCGCGAUAGUGCCAACGUCCUCAACCUCCAAUGCAUCCCACCACAUGAUGCUGCCUGAAGAGCUUUGGUUUUUUG", "note": "[G44U C70U A111C C124U]", "polymerase ribozyme fitness (log ratio)": -2.44},
      {"variant": "GACCAAUCUGCCCUCAGAGCUCGAGAACAUCUUCGGAUGCAGAUGAGGCAGGCUUCGGUGGCUCGAUAGCGCCAACGUCCUCAACCUCCAAUGCAUCCCACCACAUGAUGAUGCCUGAAGAGCCUUGGUUUUUUG", "note": "[G44U G63U]", "polymerase ribozyme fitness (log ratio)": -2.03},
      {"variant": "GACCAAUCUGCCCUCAGAGCUCGAGAACAUCUUCGGAUGCAGACGAGGCAGGCUUCGGUGGCGCGAUAGCGCCAACGUCCUCAACCUCCAAUGCAUCCCACCACAUGAUGAUCCCUGAAGAGCCUUGGUUUUUUG", "note": "[G44C G113C]", "polymerase ribozyme fitness (log ratio)": -3.05},
      {"variant": "GACCAAUCUGCCCUCAGAGCUCGAGAACAUCUUCGGAUGCAGAUGAGGCAGGCUUCGGUGGCGCGAUAGCGCCAUCGUCCUCAACCUCCAACGCAUCCCACCACAUGAUGAUGCCUGAAGAGCCUUGGUUUUUUG", "note": "[G44U A75U U92C]", "polymerase ribozyme fitness (log ratio)": -1.34},
      {"variant": "GACCAAUCUGCCCUCAGAGCUCGAGAACAUCUUCGGAUGCAGAUGAGGCAGGCUUCGGUGGCGCGAUAGCGCCAACGUCCUGAACCUCCAAUGCAUCCCACCACAUGAUGAUGCCUGAAGAGCCUUGGUUUUUUG", "note": "[G44U C82G]", "polymerase ribozyme fitness (log ratio)": -1.77},
      {"variant": "GACCAAUCUGCCCUCAGAGCUCGAGAACAUCUUCGGAUGCAGAUGAGGCAGGCUUCGGUGGCGCGAUAGCGCCAACGUCCUCAACCUCCAAUGCAUCCCACCACAUGAUGAUGCCUGAAGGGCCUUGGUUUUUUG", "note": "[G44U A121G]", "polymerase ribozyme fitness (log ratio)": 0.89}
    ]}
  ]
}
